Consider 15 molecules from patent US20240209100A1 (DIAGONAL THERAPEUTICS, published 2024).

T1: IL-18 receptor (IL-18Rα/IL-18Rβ) overexpressed on HEK-Blue IL-18 cells (Homo sapiens (Human), UniProt Q13478 19-541; O95256 20-599)
T1 sequence 1: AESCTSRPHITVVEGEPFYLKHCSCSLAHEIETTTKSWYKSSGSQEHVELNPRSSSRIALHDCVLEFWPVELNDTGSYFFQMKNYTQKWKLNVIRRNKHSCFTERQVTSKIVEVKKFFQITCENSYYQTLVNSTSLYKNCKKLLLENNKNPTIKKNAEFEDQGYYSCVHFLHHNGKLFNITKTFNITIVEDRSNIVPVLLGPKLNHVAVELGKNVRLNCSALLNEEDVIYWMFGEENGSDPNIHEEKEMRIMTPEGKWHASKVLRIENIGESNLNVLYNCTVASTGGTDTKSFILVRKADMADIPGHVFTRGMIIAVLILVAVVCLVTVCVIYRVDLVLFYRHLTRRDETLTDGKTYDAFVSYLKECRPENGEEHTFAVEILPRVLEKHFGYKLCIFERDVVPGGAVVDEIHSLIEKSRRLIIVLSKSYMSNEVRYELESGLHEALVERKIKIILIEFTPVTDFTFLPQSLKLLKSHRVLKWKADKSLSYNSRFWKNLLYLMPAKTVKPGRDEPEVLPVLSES
T1 sequence 2: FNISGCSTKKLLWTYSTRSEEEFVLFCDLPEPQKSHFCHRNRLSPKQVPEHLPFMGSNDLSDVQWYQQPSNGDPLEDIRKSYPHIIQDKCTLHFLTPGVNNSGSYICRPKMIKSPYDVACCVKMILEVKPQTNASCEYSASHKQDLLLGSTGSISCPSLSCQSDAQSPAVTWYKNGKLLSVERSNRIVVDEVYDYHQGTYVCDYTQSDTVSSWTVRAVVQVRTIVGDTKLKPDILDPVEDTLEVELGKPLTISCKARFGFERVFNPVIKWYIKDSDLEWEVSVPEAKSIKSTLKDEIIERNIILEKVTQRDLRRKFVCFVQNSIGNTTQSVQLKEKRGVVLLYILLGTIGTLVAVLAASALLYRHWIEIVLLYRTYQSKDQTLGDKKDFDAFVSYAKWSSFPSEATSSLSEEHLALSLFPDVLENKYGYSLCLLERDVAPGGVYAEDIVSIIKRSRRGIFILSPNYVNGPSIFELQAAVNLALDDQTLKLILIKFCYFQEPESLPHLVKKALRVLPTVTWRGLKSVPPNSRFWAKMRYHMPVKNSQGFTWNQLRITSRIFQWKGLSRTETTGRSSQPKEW

B1: DGL298 (bispecific antibody, V domains shown)
V domain 1: QVQLVESGGGLVQAGGSLRLSCAASGRTFSSYDMGWFRQAPGKEREFVAALRWSGGSTSYADSVKGRFTISRDNAKNTVYLHMNSLKPEDTAVYYCAATLETDSGTYWADYWGQGTQVTVSS
V domain 2: QVQLVESGGGLVLPGESLRLSCVVSGTIDNINSMGWYRQAPGKQRELVAYITKLGSANYADSVEGRFTISRDNAKKTVHLQMNSLKPEDTAVYYCHANERGRITWAQGTQVTVSS
B2: DGL308 (bispecific antibody, V domains shown)
V domain 1: QVQLVESGGGLVQAGGSLRLSCAASGRTFSSYDMGWFRQAPGKEREFVAALRWSGGSTSYADSVKGRFTISRDNAKNTVYLHMNSLKPEDTAVYYCAATLETDSGTYWADYWGQGTQVTVSS
V domain 2: EVQLVESGGGVAQAGGSLRLSCAASITSFSLNTMGYYRQLPGKQRELVAVESSSGITNYADSVKGRFTISRDGAKNTVFLQMNSLTPEDTAVYYCGGKLFGRDFWGQGTQVTVSS
B3: DGL303 (bispecific antibody, V domains shown)
V domain 1: QVQLQESGGGLVQPGGSLRLSCAASGFIFSNWYMRWVRQAPGEGLEWVSSINSGGDDTDYADSVKGRFTISRDNAKGTLYLQMHSLKPEDTALYYCERGADRVRGQGTQVTVSS
V domain 2: QVQLVESGGGLVLPGESLRLSCVVSGTIDNINSMGWYRQAPGKQRELVAYITKLGSANYADSVEGRFTISRDNAKKTVHLQMNSLKPEDTAVYYCHANERGRITWAQGTQVTVSS
B4: DGL300 (bispecific antibody, V domains shown)
V domain 1: QVQLQESGGGLVQPGGSLRLSCAASGSIFSTKGLGWYRQAPGEQRELVAGISSAGWIFYTQSVKGRFTMSRDNAKNTVYLQMNSLKPEDTAVYYCNSAQSGVPLRSWGQGTQVTVAS
V domain 2: QVQLVESGGGLVLPGESLRLSCVVSGTIDNINSMGWYRQAPGKQRELVAYITKLGSANYADSVEGRFTISRDNAKKTVHLQMNSLKPEDTAVYYCHANERGRITWAQGTQVTVSS
B5: DGL302 (bispecific antibody, V domains shown)
V domain 1: QVQLVESGGGLVQAGGSLRLSCAASGRTFSKHAMGWFRQAPGKEREFVAAIDWSGGSTYYADSVKGRFTISRDNAKNTVYLQMDSLKPEDTAVYYCAADSYTDYAQLWLPELESEYDYWGQGTQVTVSS
V domain 2: QVQLVESGGGLVLPGESLRLSCVVSGTIDNINSMGWYRQAPGKQRELVAYITKLGSANYADSVEGRFTISRDNAKKTVHLQMNSLKPEDTAVYYCHANERGRITWAQGTQVTVSS
B6: DGL304 (bispecific antibody, V domains shown)
V domain 1: QVQLVESGGGLVQAGGSLRLSCAASGRTFSSYDMGWFRQAPGKEREFVAALRWSGGSTSYADSVKGRFTISRDNAKNTVYLHMNSLKPEDTAVYYCAATLETDSGTYWADYWGQGTQVTVSS
V domain 2: QVQLQESGGGLVQPGGSLGLSCAASGIKISVNSMAWYRQAPGERREMVAVISSGGSAVYADSVKGRFTISRDNAKNMVYLQMNSLKPEDTAVYYCHPGSAAYRDYWGQGTQVTVSS
B7: DGL299 (bispecific antibody, V domains shown)
V domain 1: EVQLVESGGGLVQPGGSLRLSCAASGSIFSINAMGWYRQAPGKQREVVATSTGGGMTNYADSVKGRFTISRDNAKNTVYLQMNSLKPEDTAVYYCNADKDPFFPGDYWGQGTQVTVSS
V domain 2: QVQLVESGGGLVLPGESLRLSCVVSGTIDNINSMGWYRQAPGKQRELVAYITKLGSANYADSVEGRFTISRDNAKKTVHLQMNSLKPEDTAVYYCHANERGRITWAQGTQVTVSS
B8: DGL305 (bispecific antibody, V domains shown)
V domain 1: EVQLVESGGGLVQPGGSLRLSCAASGSIFSINAMGWYRQAPGKQREVVATSTGGGMTNYADSVKGRFTISRDNAKNTVYLQMNSLKPEDTAVYYCNADKDPFFPGDYWGQGTQVTVSS
V domain 2: QVQLQESGGGLVQPGGSLGLSCAASGIKISVNSMAWYRQAPGERREMVAVISSGGSAVYADSVKGRFTISRDNAKNMVYLQMNSLKPEDTAVYYCHPGSAAYRDYWGQGTQVTVSS
B9: DGL307 (bispecific antibody, V domains shown)
V domain 1: QVQLVESGGGLVQAGGSLRLSCAASGRTFSSYTMGWFRQAPGKEREFVAAISWSAGRTYYADSVKGRFTISRDNAKNTVYLQMNSLKPEDTAVYFCAAEEAPDWAPIDCSGYGCLSLYDYWGQGTQVTVSS
V domain 2: QVQLQESGGGLVQPGGSLGLSCAASGIKISVNSMAWYRQAPGERREMVAVISSGGSAVYADSVKGRFTISRDNAKNMVYLQMNSLKPEDTAVYYCHPGSAAYRDYWGQGTQVTVSS
B10: DGL306 (bispecific antibody, V domains shown)
V domain 1: QVQLVESGGGLVQAGGSLRLSCAASGRTFSKHAMGWFRQAPGKEREFVAAIDWSGGSTYYADSVKGRFTISRDNAKNTVYLQMDSLKPEDTAVYYCAADSYTDYAQLWLPELESEYDYWGQGTQVTVSS
V domain 2: QVQLQESGGGLVQPGGSLGLSCAASGIKISVNSMAWYRQAPGERREMVAVISSGGSAVYADSVKGRFTISRDNAKNMVYLQMNSLKPEDTAVYYCHPGSAAYRDYWGQGTQVTVSS
B11: DGL295 (bispecific antibody, V domains shown)
V domain 1: QVQLQESGGGLVQPGGSARLSCVASGIIFNDYHMGWYRQAPGKQRDLVAGITAGGSTTYADSVKGRFTISRDNAKHTVYLQMNNLSPEDTAVYYCNTFYNAILDWGKGTLVTVSS
V domain 2: QVQLVESGGDLVLPGGSLKLSCEASGSISSRNSMAWYRRAPGKQRELVAAISSISSGGRTDYADFVKGRFTIFRDTAKNMVYLQMNNLKPEDTAVYDCDDPIRVASLAYDDWGQGTQVTVSS
B12: DGL301 (bispecific antibody, V domains shown)
V domain 1: QVQLQESGGGLVQPGGSARLSCVASGIIFNDYHMGWYRQAPGKQRDLVAGITAGGSTTYADSVKGRFTISRDNAKHTVYLQMNNLSPEDTAVYYCNTFYNAILDWGKGTLVTVSS
V domain 2: QVQLVESGGGLVLPGESLRLSCVVSGTIDNINSMGWYRQAPGKQRELVAYITKLGSANYADSVEGRFTISRDNAKKTVHLQMNSLKPEDTAVYYCHANERGRITWAQGTQVTVSS
B13: DGL297 (bispecific antibody, V domains shown)
V domain 1: QVQLVESGGGLVQAGGSLRLSCAASGRTFSSYTMGWFRQAPGKEREFVAAISWSAGRTYYADSVKGRFTISRDNAKNTVYLQMNSLKPEDTAVYFCAAEEAPDWAPIDCSGYGCLSLYDYWGQGTQVTVSS
V domain 2: QVQLVESGGDLVLPGGSLKLSCEASGSISSRNSMAWYRRAPGKQRELVAAISSISSGGRTDYADFVKGRFTIFRDTAKNMVYLQMNNLKPEDTAVYDCDDPIRVASLAYDDWGQGTQVTVSS
B14: DGL296 (bispecific antibody, V domains shown)
V domain 1: QVQLVESGGGLVQAGGSLRLSCAASGRTFSKHAMGWFRQAPGKEREFVAAIDWSGGSTYYADSVKGRFTISRDNAKNTVYLQMDSLKPEDTAVYYCAADSYTDYAQLWLPELESEYDYWGQGTQVTVSS
V domain 2: QVQLVESGGDLVLPGGSLKLSCEASGSISSRNSMAWYRRAPGKQRELVAAISSISSGGRTDYADFVKGRFTIFRDTAKNMVYLQMNNLKPEDTAVYDCDDPIRVASLAYDDWGQGTQVTVSS
B15: DGL309 (bispecific antibody, V domains shown)
V domain 1: QVQLQESGGGLVQPGGSARLSCVASGIIFNDYHMGWYRQAPGKQRDLVAGITAGGSTTYADSVKGRFTISRDNAKHTVYLQMNNLSPEDTAVYYCNTFYNAILDWGKGTLVTVSS
V domain 2: EVQLVESGGGVAQAGGSLRLSCAASITSFSLNTMGYYRQLPGKQRELVAVESSSGITNYADSVKGRFTISRDGAKNTVFLQMNSLTPEDTAVYYCGGKLFGRDFWGQGTQVTVSS

The target of the assay is T1, IL-18 receptor (IL-18Rα/IL-18Rβ) …. Kind of assay: cell-based or functional assay.
B1: the “HEK-Blue IL-18: Abs 405” value is 0.97 Abs and the “HEK-Blue IL-18: Fold over Background” value turned out to be 4.2 fold.

For B2, the “HEK-Blue IL-18: Abs 405” value worked out at 1.48 Abs and the “HEK-Blue IL-18: Fold over Background” value amounted to 6.4 fold.

With B3, the “HEK-Blue IL-18: Abs 405” value was determined as 1.02 Abs and the “HEK-Blue IL-18: Fold over Background” value was 4.4 fold.

B4: the “HEK-Blue IL-18: Abs 405” value stood at 1.07 Abs and the “HEK-Blue IL-18: Fold over Background” value is 4.7 fold.

For B5, the “HEK-Blue IL-18: Abs 405” value stood at 1.18 Abs and the “HEK-Blue IL-18: Fold over Background” value stood at 5.2 fold.

Take B6: the “HEK-Blue IL-18: Abs 405” value is 1.32 Abs and the “HEK-Blue IL-18: Fold over Background” value is 5.7 fold.

With B7, the “HEK-Blue IL-18: Abs 405” value stood at 0.91 Abs and the “HEK-Blue IL-18: Fold over Background” value came to 4 fold.

For the molecule B8, the “HEK-Blue IL-18: Abs 405” value is 0.25 Abs and the “HEK-Blue IL-18: Fold over Background” value amounted to 1.1 fold.

In the case of B9, the “HEK-Blue IL-18: Abs 405” value turned out to be 0.35 Abs and the “HEK-Blue IL-18: Fold over Background” value came to 1.5 fold.

Regarding B10, the “HEK-Blue IL-18: Abs 405” value was 1.41 Abs and the “HEK-Blue IL-18: Fold over Background” value was found to be 6.2 fold.

For B11, the “HEK-Blue IL-18: Abs 405” value was 0.46 Abs and the “HEK-Blue IL-18: Fold over Background” value was determined as 2 fold.

Regarding B12, the “HEK-Blue IL-18: Abs 405” value came out at 0.66 Abs and the “HEK-Blue IL-18: Fold over Background” value came to 2.9 fold.

Regarding B13, the “HEK-Blue IL-18: Abs 405” value is 0.63 Abs and the “HEK-Blue IL-18: Fold over Background” value worked out at 2.7 fold.

For B14, the “HEK-Blue IL-18: Abs 405” value was determined as 0.66 Abs and the “HEK-Blue IL-18: Fold over Background” value is 2.9 fold.

On to B15, for which the “HEK-Blue IL-18: Abs 405” value turned out to be 0.23 Abs and the “HEK-Blue IL-18: Fold over Background” value is 1 fold.
